Test results: paper PMC10540216, “Activity Guided Azide-methyllysine Photo-trapping for Substrate Profiling of Lysine Demethylases” (Journal of the American Chemical Society, 2023)

B1: KRT85_HUMAN (protein, UniProt P78386 1-507, looked up)
Keratin, type II cuticular Hb5: MSCRSYRISSGCGVTRNFSSCSAVAPKTGNRCCISAAPYRGVSCYRGLTGFGSRSLCNLGSCGPRIAVGGFRAGSCGRSFGYRSGGVCGPSPPCITTVSVNESLLTPLNLEIDPNAQCVKQEEKEQIKSLNSRFAAFIDKVRFLEQQNKLLETKWQFYQNQRCCESNLEPLFSGYIETLRREAECVEADSGRLASELNHVQEVLEGYKKKYEEEVALRATAENEFVVLKKDVDCAYLRKSDLEANVEALVEESSFLRRLYEEEIRVLQAHISDTSVIVKMDNSRDLNMDCIIAEIKAQYDDVASRSRAEAESWYRSKCEEMKATVIRHGETLRRTKEEINELNRMIQRLTAEIENAKCQRAKLEAAVAEAEQQGEAALSDARCKLAELEGALQKAKQDMACLLKEYQEVMNSKLGLDIEIATYRRLLEGEEHRLCEGVGSVNVCVSSSRGGVSCGGLSYSTTPGRQITSGPSAIGGSITVVAPDSCAPCQPRSSSFSCGSSRSVRFA
B2: YTDC2_HUMAN (protein, UniProt Q9H6S0 1-1430, looked up)
3'-5' RNA helicase YTHDC2: MSRPSSVSPRQPAPGGGGGGGPSPCGPGGGGRAKGLKDIRIDEEVKIAVNIALERFRYGDQREMEFPSSLTSTERAFIHRLSQSLGLVSKSKGKGANRYLTVKKKDGSETAHAMMTCNLTHNTKHAVRSLIQRFPVTNKERTELLPKTERGNVFAVEAENREMSKTSGRLNNGIPQIPVKRGESEFDSFRQSLPVFEKQEEIVKIIKENKVVLIVGETGSGKTTQIPQFLLDDCFKNGIPCRIFCTQPRRLAAIAVAERVAAERRERIGQTIGYQIRLESRVSPKTLLTFCTNGVLLRTLMAGDSTLSTVTHVIVDEVHERDRFSDFLLTKLRDLLQKHPTLKLILSSAALDVNLFIRYFGSCPVIYIQGRPFEVKEMFLEDILRTTGYTNKEMLKYKKEKQQEEKQQTTLTEWYSAQENSFKPESQRQRTVLNVTDEYDLLDDGGDAVFSQLTEKDVNCLEPWLIKEMDACLSDIWLHKDIDAFAQVFHLILTENVSVDYRHSETSATALMVAAGRGFASQVEQLISMGANVHSKASNGWMALDWAKHFGQTEIVDLLESYSATLEFGNLDESSLVQTNGSDLSAEDRELLKAYHHSFDDEKVDLDLIMHLLYNICHSCDAGAVLIFLPGYDEIVGLRDRILFDDKRFADSTHRYQVFMLHSNMQTSDQKKVLKNPPAGVRKIILSTNIAETSITVNDVVFVIDSGKVKEKSFDALNFVTMLKMVWISKASAIQRKGRAGRCRPGICFRLFSRLRFQNMLEFQTPELLRMPLQELCLHTKLLAPVNCPIADFLMKAPEPPPALIVRNAVQMLKTIDAMDTWEDLTELGYHLADLPVEPHLGKMVLCAVVLKCLDPILTIACTLAYRDPFVLPTQASQKRAAMLCRKRFTAGAFSDHMALLRAFQAWQKARSDGWERAFCEKNFLSQATMEIIIGMRTQLLGQLRASGFVRARGGGDIRDVNTNSENWAVVKAALVAGMYPNLVHVDRENLVLTGPKEKKVRFHPASVLSQPQYKKIPPANGQAAAIKALPTDWLIYDEMTRAHRIANIRCCSAVTPVTILVFCGPARLASNALQEPSSFRVDGIPNDSSDSEMEDKTTANLAALKLDEWLHFTLEPEAASLLLQLRQKWHSLFLRRMRAPSKPWSQVDEATIRAIIAVLSTEEQSAGLQQPSGIGQRPRPMSSEELPLASSWRSNNSRKSSADTEFSDECTTAERVLMKSPSPALHPPQKYKDRGILHPKRGTEDRSDQSSLKSTDSSSYPSPCASPSPPSSGKGSKSPSPRPNMPVRYFIMKSSNLRNLEISQQKGIWSTTPSNERKLNRAFWESSIVYLVFSVQGSGHFQGFSRMSSEIGREKSQDWGSAGLGGVFKVEWIRKESLPFQFAHHLLNPWNDNKKVQISRDGQELEPLVGEQLLQLWERLPLGEKNTTD
B3: ATX2L_HUMAN (protein, UniProt Q8WWM7 1-1075, looked up)
Ataxin-2-like protein: MLKPQPLQQPSQPQQPPPTQQAVARRPPGGTSPPNGGLPGPLATSAAPPGPPAAASPCLGPVAAAGSGLRRGAEGILAPQPPPPQQHQERPGAAAIGSARGQSTGKGPPQSPVFEGVYNNSRMLHFLTAVVGSTCDVKVKNGTTYEGIFKTLSSKFELAVDAVHRKASEPAGGPRREDIVDTMVFKPSDVMLVHFRNVDFNYATKDKFTDSAIAMNSKVNGEHKEKVLQRWEGGDSNSDDYDLESDMSNGWDPNEMFKFNEENYGVKTTYDSSLSSYTVPLEKDNSEEFRQRELRAAQLAREIESSPQYRLRIAMENDDGRTEEEKHSAVQRQGSGRESPSLASREGKYIPLPQRVREGPRGGVRCSSSRGGRPGLSSLPPRGPHHLDNSSPGPGSEARGINGGPSRMSPKAQRPLRGAKTLSSPSNRPSGETSVPPPPAVGRMYPPRSPKSAAPAPISASCPEPPIGSAVPTSSASIPVTSSVSDPGVGSISPASPKISLAPTDVKELSTKEPGRTLEPQELARIAGKVPGLQNEQKRFQLEELRKFGAQFKLQPSSSPENSLDPFPPRILKEEPKGKEKEVDGLLTSEPMGSPVSSKTESVSDKEDKPPLAPSGGTEGPEQPPPPCPSQTGSPPVGLIKGEDKDEGPVAEQVKKSTLNPNAKEFNPTKPLLSVNKSTSTPTSPGPRTHSTPSIPVLTAGQSGLYSPQYISYIPQIHMGPAVQAPQMYPYPVSNSVPGQQGKYRGAKGSLPPQRSDQHQPASAPPMMQAAAAAGPPLVAATPYSSYIPYNPQQFPGQPAMMQPMAHYPSQPVFAPMLQSNPRMLTSGSHPQAIVSSSTPQYPSAEQPTPQALYATVHQSYPHHATQLHAHQPQPATTPTGSQPQSQHAAPSPVQHQAGQAPHLGSGQPQQNLYHPGALTGTPPSLPPGPSAQSPQSSFPQPAAVYAIHHQQLPHGFTNMAHVTQAHVQTGITAAPPPHPGAPHPPQVMLLHPPQSHGGPPQGAVPQSGVPALSASTPSPYPYIGHPQGEQPGQAPGFPGGADDRIREFSLAGGIWHGRAEGLQVGQDARVLGGE
B4: NCKP1_HUMAN (protein, UniProt Q9Y2A7 2-1128, looked up)
Nck-associated protein 1: SRSVLQPSQQKLAEKLTILNDRGVGMLTRLYNIKKACGDPKAKPSYLIDKNLESAVKFIVRKFPAVETRNNNQQLAQLQKEKSEILKNLALYYFTFVDVMEFKDHVCELLNTIDVCQVFFDITVNFDLTKNYLDLIITYTTLMILLSRIEERKAIIGLYNYAHEMTHGASDREYPRLGQMIVDYENPLKKMMEEFVPHSKSLSDALISLQMVYPRRNLSADQWRNAQLLSLISAPSTMLNPAQSDTMPCEYLSLDAMEKWIIFGFILCHGILNTDATALNLWKLALQSSSCLSLFRDEVFHIHKAAEDLFVNIRGYNKRINDIRECKEAAVSHAGSMHRERRKFLRSALKELATVLSDQPGLLGPKALFVFMALSFARDEIIWLLRHADNMPKKSADDFIDKHIAELIFYMEELRAHVRKYGPVMQRYYVQYLSGFDAVVLNELVQNLSVCPEDESIIMSSFVNTMTSLSVKQVEDGEVFDFRGMRLDWFRLQAYTSVSKASLGLADHRELGKMMNTIIFHTKMVDSLVEMLVETSDLSIFCFYSRAFEKMFQQCLELPSQSRYSIAFPLLCTHFMSCTHELCPEERHHIGDRSLSLCNMFLDEMAKQARNLITDICTEQCTLSDQLLPKHCAKTISQAVNKKSKKQTGKKGEPEREKPGVESMRKNRLVVTNLDKLHTALSELCFSINYVPNMVVWEHTFTPREYLTSHLEIRFTKSIVGMTMYNQATQEIAKPSELLTSVRAYMTVLQSIENYVQIDITRVFNNVLLQQTQHLDSHGEPTITSLYTNWYLETLLRQVSNGHIAYFPAMKAFVNLPTENELTFNAEEYSDISEMRSLSELLGPYGMKFLSESLMWHISSQVAELKKLVVENVDVLTQMRTSFDKPDQMAALFKRLSSVDSVLKRMTIIGVILSFRSLAQEALRDVLSYHIPFLVSSIEDFKDHIPRETDMKVAMNVYELSSAAGLPCEIDPALVVALSSQKSENISPEEEYKIACLLMVFVAVSLPTLASNVMSQYSPAIEGHCNNIHCLAKAINQIAAALFTIHKGSIEDRLKEFLALASSSLLKIGQETDKTTTRNRESVYLLLDMIVQESPFLTMDLLESCFPYVLLRNAYHAVYKQSVTSSA

Tested on: KDM4A-I71AzF
Experiment: CASI: photo-crosslinking with HEK293T cell extracts, StrepTactin enrichment and LC-MS/MS proteomics;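 further: lysates from HEK293T cells pretreated with a KDM4 inhibitor to raise proteome methylation, affinity-purified after ±UV, gel-resolved, trypsin-digested, with exclusive unique peptides per protein averaged per condition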
Type: binding, human
Settings: sheet "Final results but with 0.01"

| Molecule | Fold change (+UV/-UV) |
| --- | --- |
| B1 | 3 |
| B2 | 0.3333 |
| B3 | 0 |
| B4 | 0.6 |
